Assay results published in the supplement of paper PMC7877785.
± gives the uncertainty stated by the source.

Assay: self-splicing fitness, log relative to wild type (ln ratio); higher = more splicing; Tetrahymena group I intron in knt gene, E. coli kanamycin selection, DiMSum; sequences stand for … in CUCUCU…GGAGGGAAAAGUUAUCAGGCAUGCACCUGGUAGCUAGUCUUUAAACCAAUAGAUUGCAUCGGUUUAAAAGGCAAGACCGUCAAAUUGCGGGAAAGGGGUCAACAGCCGUUCAGUACCAAGUCUCAGGGGAAACUUUGAGAUGGCCUUGCAAAGGGUAUGGUAAUAAGCUGACGGACAUGGUCCUAACCACGCAGCCAAGUCCUAAGUCAACAGAUCUUCUGUUGAUAUGGAUGCAGUUCACAGACUAAAUGUCGGUCGGGGAAGAUGUAUUCUUCUCAUAAGAUAUAGUCGGACCUCUCCUUAAUGGGAGCUAGCGGAUGAAGUGAUGCAACACUGGAGCCGCUGGGAACUAAUUUGUAUGCGAAAGUAUAUUGAUUAGUUUUGGAGUACUCGUGGUCG
How it was run: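 A randomised library covering all eight P1ex-region intron nucleotides was built with the intron in the knt kanamycin-resistance gene on pET-22b(+) and held in E. coli BL21(DE3). Cells were grown overnight at 37°C or 30°C on LB agar, with or without 25 μg/mL kanamycin, plus 100 μg/mL carbenicillin, 50 μM IPTG and 0.2% rhamnose, and pooled colonies were amplicon-sequenced on an Illumina HiSeq 2500. DiMSum fitness is the error-weighted combination of wild-type-normalised replicate fold changes, kanamycin versus none.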

| Sequence | self-splicing fitness (ln) (30 °C) | self-splicing fitness (ln) (37 °C) |
| --- | --- | --- |
| CGUGAGCAAUAUUACGGUGC | -4.97 ± 0.41 | -3.39 ± 0.17 |
| CGUGAGCAAUAUUACGGUGU | -3.79 ± 0.43 | -1.98 ± 0.22 |
| CGUGAGCAAUAUUACGUAGA | -3.22 ± 0.2 | -2.89 ± 0.22 |
| CGUGAGCAAUAUUACGUAGU | -4.5 ± 0.36 | -2.19 ± 0.2 |
| CGUGAGCAAUAUUACGUCAG | -1.86 ± 0.16 | -0.364 ± 0.15 |
| CGUGAGCAAUAUUACGUCGG | -0.475 ± 0.11 | -0.606 ± 0.12 |
| CGUGAGCAAUAUUACGUCUA | -2.99 ± 0.37 | -1.59 ± 0.21 |
| CGUGAGCAAUAUUACGUGCC | – | -1.78 ± 0.39 |
| CGUGAGCAAUAUUACGUGCG | -3.21 ± 0.24 | -2.6 ± 0.32 |
| CGUGAGCAAUAUUACGUGGG | -2.91 ± 0.14 | -1.99 ± 0.11 |
| CGUGAGCAAUAUUACGUUAA | -4 ± 0.31 | -3.55 ± 0.3 |
| CGUGAGCAAUAUUACGUUCC | -3.37 ± 0.31 | – |
| CGUUAGCAAUAUUACGCAAC | -2.61 ± 0.49 | -2.01 ± 0.35 |
| CGUUAGCAAUAUUACGCACA | -1.33 ± 0.17 | -0.0289 ± 0.28 |
| CGUUAGCAAUAUUACGCAGG | -1.3 ± 0.1 | -1.26 ± 0.16 |
| CGUUAGCAAUAUUACGCAGU | – | -2.29 ± 0.37 |
| CGUUAGCAAUAUUACGCAUA | – | -1.37 ± 0.23 |
| CGUUAGCAAUAUUACGCCUC | -3.03 ± 0.49 | -2.48 ± 0.32 |
| CGUUAGCAAUAUUACGCGCC | -2.21 ± 0.39 | -1.05 ± 0.27 |
| CGUUAGCAAUAUUACGGAAG | -1.02 ± 0.12 | -0.829 ± 0.12 |
| CGUUAGCAAUAUUACGGACC | -0.382 ± 0.14 | 0.675 ± 0.16 |
| CGUUAGCAAUAUUACGGAGA | -2.64 ± 0.4 | -1.53 ± 0.43 |
| CGUUAGCAAUAUUACGGAGC | -3.81 ± 0.47 | -1.35 ± 0.47 |
| CGUUAGCAAUAUUACGGCCG | -1.84 ± 0.41 | -0.176 ± 0.35 |

| Sequence | self-splicing fitness (ln) (30 °C) | self-splicing fitness (ln) (37 °C) |
| --- | --- | --- |
| CGUUAGCAAUAUUACGGGCG | -3.04 ± 0.24 | -2.38 ± 0.3 |
| CGUUAGCAAUAUUACGGUAA | -1.58 ± 0.26 | -0.129 ± 0.28 |
| CGUUAGCAAUAUUACGGUUG | -0.758 ± 0.11 | 0.388 ± 0.13 |
| CGUUAGCAAUAUUACGUACC | -1.39 ± 0.15 | -1.09 ± 0.18 |
| CGUUAGCAAUAUUACGUAGG | -0.104 ± 0.093 | -0.845 ± 0.14 |
| CGUUAGCAAUAUUACGUGUA | -3.37 ± 0.25 | -3.03 ± 0.34 |
| CUAAAGCAAUAUUACGACCA | -2.78 ± 0.23 | 0.487 ± 0.23 |
| CUAAAGCAAUAUUACGAGCC | -1.33 ± 0.18 | -0.475 ± 0.44 |
| CUAAAGCAAUAUUACGAGUG | 0.178 ± 0.047 | 0.456 ± 0.077 |
| CUAAAGCAAUAUUACGAUAA | -2.17 ± 0.14 | -0.422 ± 0.12 |
| CUAAAGCAAUAUUACGAUGU | -3.84 ± 0.18 | -2.58 ± 0.2 |
| CUAAAGCAAUAUUACGCAAC | -3.32 ± 0.29 | -3.03 ± 0.38 |
| CUAAAGCAAUAUUACGCAUA | -3.66 ± 0.23 | -2.65 ± 0.24 |
| CUAAAGCAAUAUUACGCAUG | -0.592 ± 0.071 | -0.193 ± 0.089 |
| CUAAAGCAAUAUUACGCUAC | -3.59 ± 0.37 | -2.59 ± 0.26 |
| CUAAAGCAAUAUUACGCUAG | -3.41 ± 0.24 | -1.84 ± 0.13 |
| CUAAAGCAAUAUUACGGAGU | -4.03 ± 0.15 | -3.19 ± 0.23 |
| CUAAAGCAAUAUUACGGGCC | -2.8 ± 0.23 | -1.28 ± 0.2 |
| CUAAAGCAAUAUUACGGGUG | 0.107 ± 0.039 | 0.493 ± 0.064 |
| CUAAAGCAAUAUUACGGUGC | -3.22 ± 0.16 | -3.15 ± 0.25 |
| CUAAAGCAAUAUUACGGUUA | -3.78 ± 0.33 | -2.72 ± 0.25 |
| CUAAAGCAAUAUUACGUAAA | -2.81 ± 0.14 | -3.36 ± 0.26 |
| CUAAAGCAAUAUUACGUAUC | -3.77 ± 0.18 | -2.22 ± 0.22 |
| CUAAAGCAAUAUUACGUCUG | 0.155 ± 0.049 | 0.458 ± 0.071 |
